How the values were obtained:
[1] = molecular target: SARS-CoV-2 spike (S) glycoprotein (SARS-CoV-2) (UniProt P0DTC2); assay: cell-based or functional assay
[2] = molecular target: MERS-CoV spike (S) protein (MERS-CoV) (UniProt K9N5Q8); assay: cell-based or functional assay

MERS-CoV C-lipopeptide (MERS-CoV S HRC residues 1251-1286, cholesterol-conjugated)
IC50, plaque-neutralization test, SARS-CoV-2 infection of Vero E6 cells [1]: 90 nM | IC50, plaque-neutralization test, MERS-CoV infection of Vero E6 cells [2]: < 8 nM

From patent publication US20250257099A1 (priority 2022, published 2025)
